Assay [1] concerns the target T1, murine interleukin 17E receptor present on the pre-B cell line 70Z/3 (murine, UniProt Q9JIP3 18-499).
T1 construct: whole, on cells; This is the endogenous receptor on 70Z/3 cells; also called murine IL-17E receptor; IL-17E receptor
T1 sequence (looked up): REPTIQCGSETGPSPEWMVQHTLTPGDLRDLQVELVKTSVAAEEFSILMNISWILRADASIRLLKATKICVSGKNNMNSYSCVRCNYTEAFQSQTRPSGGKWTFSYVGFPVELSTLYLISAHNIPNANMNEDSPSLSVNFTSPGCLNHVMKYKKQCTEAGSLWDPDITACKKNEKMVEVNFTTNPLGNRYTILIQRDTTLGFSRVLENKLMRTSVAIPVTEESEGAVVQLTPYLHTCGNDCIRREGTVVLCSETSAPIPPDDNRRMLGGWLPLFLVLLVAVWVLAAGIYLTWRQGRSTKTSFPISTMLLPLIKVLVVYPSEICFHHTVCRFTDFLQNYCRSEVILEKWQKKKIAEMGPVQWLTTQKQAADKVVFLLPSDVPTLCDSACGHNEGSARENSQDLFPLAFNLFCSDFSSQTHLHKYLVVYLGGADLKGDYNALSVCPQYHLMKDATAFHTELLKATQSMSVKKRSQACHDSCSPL
Put plainly: FACS on 70Z/3 cells incubated with IL-17E (1 ug/10^6 cells), detected with biotin-conjugated goat anti-mouse IL17E and PE-Cy5.5 streptavidin. As for the experimental part: (§1) The ability of human and murine interleukin 17E to bind to the IL-17E receptor was examined using the murine pre-B cell line 70Z/3 (Paige, C. J., et al. (1981) Nature 292:631-3).
(§2) Fluorescence-Activated Cell Sorter (FACS) Analysis: 1×10⁶ 70Z/3 cells/sample were incubated with either murine or human IL-17E (1 μg/10⁶ cells) for 30 minutes at 4° C. After washing twice, cells that had been incubated with murine IL-17E were incubated with biotin-conjugated goat anti-mouse IL17E and phycoerythrin (PE)-Cy5.5-conjugated streptavidin. Cells that had been incubated with human IL-17E were incubated with biotin-conjugated goat anti-human IL17E-biotin and phycoerythrin (PE)-Cy5.5-conjugated streptavidin. As negative controls, cells were stained with antibodies as described without preincubation with human or murine IL-17E. Samples were then fixed with 0.5% paraformaldehyde prior to FACS analysis.

The target in assay [2] is T1, murine interleukin 17E receptor present …. As to the kind of experiment: FACS on 70Z/3 cells incubated with IL-17E (1 ug/10^6 cells), detected with biotin-conjugated goat anti-human IL17E and PE-Cy5.5 streptavidin. As for the experimental part: as §1, §2

B1: murine interleukin 17E (ligand)
chain: VSLRIQEGCSHLPSCCPSKEQEPPEEWLKWSSASVSPPEPLSHTHHAESCRASKDGPLNSRAISPWSYELDRDLNRVPQDLYHARCLCPHCVSLQTGSHMDPLGNSVPLYHNQTVFYRRPCHGEEGTHRRYCLERRLYRVSLACVCVRPRVMA
notes: also called murine IL-17E; mIL-17E
B1: the binding result in assay [1] is recorded as “binds”.

B2: recombinant human interleukin 17E (ligand)
chain: YSHWPSCCPSKGQDTSEELLRWSTVPVPPLEPARPNRHPESCRASEDGPLNSRAISPWRYELDRDLNRLPQDLYHARCLCPHCVSLQTGSHMDPRGNSELLYHNQTVFYRRPCHGEKGTHKGYCLERRLYRVSLACVCVRPRVMG
notes: also called human IL-17E; hIL-17E
For the molecule B2, in assay [2], the binding result is reported as “binds”.

The record behind these values is patent publication US20110158936A1 (LORUS THERAPEUTICS, published 2011).
